Residue numbers refer to the chain shown, from its start. Where no end group is shown, it is not given here.
B1: minibinder 8.5 (designed binder)
chain: SLEEEAERVVEELVKEFNLSRTQEIALRRYAEYAARATASEEVIEELLRRVAERLS
modifications: also: biotin (for BLI), position not given here
B2: minibinder 8.3 (designed binder)
chain: B1 chain with R36K, T38G
modifications: also: biotin (for BLI), position not given here
B3: minibinder 8.4 (designed binder)
chain: B1 chain with T38G
modifications: also: biotin (for BLI), position not given here
B4: minibinder 8.1 (designed binder)
chain: B1 chain with Y33F, R36K, T38G
modifications: also: biotinylated (site not given here)
B5: minibinder 8.2 (designed binder)
chain: B1 chain with R21E, R36K, T38G
modifications: also: biotin (for BLI), position not given here
B6: minibinder 6 with C-terminal Avi-His6 tag (designed binder)
chain: SAVELYLELLERSLRLAVEAGDPEDAERILRKARQIARVFNDPELEEIVERMEEILK-{Avi tag-His6}
modifications: also: biotin
B7: minibinder 7 with C-terminal Avi-His6 tag (designed binder)
chain: SAMERYVKVLLRTAELAREAGDPEDVRKALEKAELVARILHNEELKEEIREVEEEL-{Avi tag-His6}
modifications: also: biotin
B8: minibinder 8 with C-terminal Avi-His6 tag (designed binder)
chain: SLEEEAERVVEELVKEFNLSETQEIALRRYAEFAAKAGASEEVIEELLRRVAERLS-{Avi-His6}
modifications: also: biotin (for BLI), position not given here
B9: minibinder 7.8 (designed binder)
chain: SAMEYYVKELLRTAEYAREAGDPEYVRKALEQAELVARILHNEELKEEIREVEEEL
modifications: also: biotinylated (site not given here)
B10: minibinder 7.9 (designed binder)
chain: B9 chain with K28N
modifications: also: biotinylated (site not given here)
B11: minibinder 7.4 (designed binder)
chain: B9 chain with K8N, E9V, Y25D, Q32K
modifications: also: biotin
B12: minibinder 7.10 (designed binder)
chain: B9 chain with D22E, K28N
modifications: also: biotin
B13: minibinder 7.12 (designed binder)
chain: B9 chain with Y25D, K28N
modifications: also: biotin
B14: minibinder 7.3 (designed binder)
chain: B9 chain with E9V
modifications: also: biotin
B15: minibinder 7.2 (designed binder)
chain: B9 chain with E9V, Q32K
modifications: also: biotin
B16: minibinder 7.7 (designed binder)
chain: B9 chain with Q32K
modifications: also: biotin
B17: minibinder 7.6 (designed binder)
chain: B9 chain with Y25D, Q32K
modifications: also: biotin
B18: minibinder 7.11 (designed binder)
chain: B9 chain with Y25D
modifications: also: biotin
B19: minibinder 7.5 (designed binder)
chain: B9 chain with E9V, Y25D
modifications: also: biotin

Each binder was assayed against T1, human TLR3 ectodomain (Wuxi Biologics, custom order) (human, UniProt O15455 24-704, biotin (for yeast display)) (assay: BLI).

With B1 as the binder, how does the Kd read?
The Kd was 170 nM.

For B2, which Kd is on record?
Its Kd is 230 nM.

Which Kd does the source give for B3 here?
The Kd was 230 nM.

How did the Kd turn out when B4 was run?
Its Kd is 690 nM.

B5 was tested. Which Kd did it give?
Its Kd is 600 nM.

Target: T1, human TLR3 ectodomain (Wuxi Biologics, …)
Assay: BLI
Remark: another data set of the same source

How did the Kd turn out when B6 was run?
Its Kd is 43 nM.

Target: T1, human TLR3 ectodomain (Wuxi Biologics, …)
Assay: BLI
Remark: another data set of the same source

For B7, which Kd is on record?
Its Kd is 440 nM.

With B8 as the binder, how does the Kd read?
The Kd was 1200 nM.

Target: T1, human TLR3 ectodomain (Wuxi Biologics, …)
Assay: BLI
Remark: another data set of the same source

For B9, which Kd is on record?
Its Kd is 40 nM.

How did the Kd turn out when B10 was run?
Its Kd is 95 nM.

How did the Kd turn out when B11 was run?
The Kd was 34 nM.

For B12, which Kd is on record?
The Kd was 190 nM.

B13 was tested. Which Kd did it give?
The Kd was 108 nM.

How did the Kd turn out when B14 was run?
The Kd was 29 nM.

How did the Kd turn out when B15 was run?
The Kd was 17 nM.

For B16, which Kd is on record?
Its Kd is 31 nM.

B17 was tested. Which Kd did it give?
The Kd was 24 nM.

B18 was tested. Which Kd did it give?
Its Kd is 45 nM.

Which Kd does the source give for B19 here?
Its Kd is 1.1 nM.
